Laboratory results from paper PMC5487319 (Scientific Reports, 2017).
Where a SMILES comes first, the peptide text is derived from it. The star is where a group is joined. HYNIC = NNc1ccc(C(=O)*)cn1

Legend:
[1] = in vivo; conditions: male, BALB/c-nude, mouse, iv, 11.1 MBq, total radioactivity
Description: (§1) Five-week-old male BALB/c-nude mice were used for preparation of the xenograft tumor models. An A549 lung carcinoma-bearing model was established by subcutaneous injection of A549 cells at a concentration of 5 × 10^6 cells/mouse into the right front flank of the mice.
(§2) SPECT planar imaging was performed when the tumor volume was approximately 1 cm^3. The mice were anesthetized and placed in a supine position. Planar imaging was performed using a low-energy collimator at an energy peak of 140 keV at the indicated time after ^99mTc-labeled peptide (11.1 MBq, 150 μL) injection. The main imaging acquisition parameters were as follows: 128 × 128 matrix, window-width 20%, zoom 2.0, acquisition time 10 min. […] Then, 100,000 counts were acquired per image at each time indicated after the injection. For the blocking study, an excessive amount of HYNIC-peptide or EC-peptide (500 μg/mouse) was injected 30 min prior to radiolabeled peptide injection.

[2] = system: A549 tumor-bearing nude mice; test: SPECT planar imaging; conditions: intravenous administration, 2 hour
Description: as §1, §2

[3] = system: A549 xenograft tumors; test: Therapeutic evaluation of ^188Re-peptides on A549 tumors; type: in vivo, mice; conditions: 18.5 MBq i.v. at the first and seventh day
Description: Sixty mice were randomly separated into 6 groups once the tumor volumes reached approximately 0.1 cm^3: saline group, ^188ReO4 ^− group (18.5 MBq), non-labeled peptide group (4 μg per mouse) and ^188Re-labeled peptide group (18.5 MBq, 4 μg peptide per mouse) (n = 10). All drugs were administered i.v at the first and seventh day. Tumor size was determined weekly by measuring the length, width, and depth of the tumor using a caliper. Tumor volume was calculated as follows: tumor volume = (length × width × depth) × π/6. The mice were abandoned once dead or body weight loss was more than 20%.
At the end of the therapeutic period, mice were sacrificed, and the tumors were collected and fixed in 4% paraformaldehyde (PFA). Routine hematoxylin and eosin (H&E) staining and TdT-mediated dUTP nick-end labeling (TUNEL) staining were performed for necrosis and apoptosis analysis according to the manufacturer’s instructions.

[4] = biological target: VEGFR-1 (Homo sapiens, UniProt P17948); test: Co-immunoprecipitation of GST-peptide and VEGFR-1; type: binding; conditions: A549 cells, GST-peptide 80 or 185 nmol/L, 12 h, anti-GST or anti-VEGFR-1 antibody, Western blot
Chain of VEGFR-1 (P17948 27-656 limits assumed): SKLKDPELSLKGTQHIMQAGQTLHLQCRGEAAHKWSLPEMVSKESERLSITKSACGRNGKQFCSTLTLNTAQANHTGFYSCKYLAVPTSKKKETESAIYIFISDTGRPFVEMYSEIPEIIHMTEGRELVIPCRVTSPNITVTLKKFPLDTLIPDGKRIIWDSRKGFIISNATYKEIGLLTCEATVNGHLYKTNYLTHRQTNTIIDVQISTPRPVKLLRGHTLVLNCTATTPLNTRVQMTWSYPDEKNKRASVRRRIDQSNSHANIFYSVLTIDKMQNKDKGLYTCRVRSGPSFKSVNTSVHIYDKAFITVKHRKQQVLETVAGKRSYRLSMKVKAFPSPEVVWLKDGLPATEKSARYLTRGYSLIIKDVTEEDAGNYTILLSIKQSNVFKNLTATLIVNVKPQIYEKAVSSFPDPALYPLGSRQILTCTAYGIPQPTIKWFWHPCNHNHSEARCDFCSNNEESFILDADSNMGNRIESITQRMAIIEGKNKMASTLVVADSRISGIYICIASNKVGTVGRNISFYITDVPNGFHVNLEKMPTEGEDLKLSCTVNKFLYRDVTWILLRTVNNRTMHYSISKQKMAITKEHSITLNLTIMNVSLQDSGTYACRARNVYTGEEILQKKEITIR
Description: GST-peptide was prepared and purified as previously described. Briefly, pGEX4T-1-peptide plasmid was obtained by peptide gene insertion into pGEX4T-1. Then, the plasmids were transfected into E. coli BL21 (DE3)-competent cells. Subsequently, GST-peptide fusion proteins were collected and purified by Glutathione Sepharose 4B. The obtained proteins were identified by protein electrophoresis.
A549 cells were seeded in 75 cm^2 bottles (1 × 10^4 counts/mL). After 24 h, GST-QKRKRKKSRKKH (80 nmol/L) or GST–RKRKRKKSRYIVLS (185 nmol/L) protein was added, respectively. After 12 h, the culture medium was removed and the cells were washed by PBS and then spalled with IP lysis buffer containing protease inhibitor (4 °C, 30 min). The protein concentration was determined with BCA methods. Protein (600 μg) from supernatant was used for immunoprecipitation (IP) assays with 1 μg anti-GST antibody or 1 μg anti-VEGFR-1 antibody in a reversed Co-IP experiment, while IgG served as the negative group. After washing 3× by TBST, IgG-HRP was added, shaking 2 h at RT, and last for enhanced chemiluminescence imaging.

[5] = biological target: VEGFR (UniProt P17948 27-1338); test: radioligand binding; receptor competition binding with 125I-VEGF165, peptide concentration varied; details in ref. 28
Chain of VEGFR (P17948 27-1338): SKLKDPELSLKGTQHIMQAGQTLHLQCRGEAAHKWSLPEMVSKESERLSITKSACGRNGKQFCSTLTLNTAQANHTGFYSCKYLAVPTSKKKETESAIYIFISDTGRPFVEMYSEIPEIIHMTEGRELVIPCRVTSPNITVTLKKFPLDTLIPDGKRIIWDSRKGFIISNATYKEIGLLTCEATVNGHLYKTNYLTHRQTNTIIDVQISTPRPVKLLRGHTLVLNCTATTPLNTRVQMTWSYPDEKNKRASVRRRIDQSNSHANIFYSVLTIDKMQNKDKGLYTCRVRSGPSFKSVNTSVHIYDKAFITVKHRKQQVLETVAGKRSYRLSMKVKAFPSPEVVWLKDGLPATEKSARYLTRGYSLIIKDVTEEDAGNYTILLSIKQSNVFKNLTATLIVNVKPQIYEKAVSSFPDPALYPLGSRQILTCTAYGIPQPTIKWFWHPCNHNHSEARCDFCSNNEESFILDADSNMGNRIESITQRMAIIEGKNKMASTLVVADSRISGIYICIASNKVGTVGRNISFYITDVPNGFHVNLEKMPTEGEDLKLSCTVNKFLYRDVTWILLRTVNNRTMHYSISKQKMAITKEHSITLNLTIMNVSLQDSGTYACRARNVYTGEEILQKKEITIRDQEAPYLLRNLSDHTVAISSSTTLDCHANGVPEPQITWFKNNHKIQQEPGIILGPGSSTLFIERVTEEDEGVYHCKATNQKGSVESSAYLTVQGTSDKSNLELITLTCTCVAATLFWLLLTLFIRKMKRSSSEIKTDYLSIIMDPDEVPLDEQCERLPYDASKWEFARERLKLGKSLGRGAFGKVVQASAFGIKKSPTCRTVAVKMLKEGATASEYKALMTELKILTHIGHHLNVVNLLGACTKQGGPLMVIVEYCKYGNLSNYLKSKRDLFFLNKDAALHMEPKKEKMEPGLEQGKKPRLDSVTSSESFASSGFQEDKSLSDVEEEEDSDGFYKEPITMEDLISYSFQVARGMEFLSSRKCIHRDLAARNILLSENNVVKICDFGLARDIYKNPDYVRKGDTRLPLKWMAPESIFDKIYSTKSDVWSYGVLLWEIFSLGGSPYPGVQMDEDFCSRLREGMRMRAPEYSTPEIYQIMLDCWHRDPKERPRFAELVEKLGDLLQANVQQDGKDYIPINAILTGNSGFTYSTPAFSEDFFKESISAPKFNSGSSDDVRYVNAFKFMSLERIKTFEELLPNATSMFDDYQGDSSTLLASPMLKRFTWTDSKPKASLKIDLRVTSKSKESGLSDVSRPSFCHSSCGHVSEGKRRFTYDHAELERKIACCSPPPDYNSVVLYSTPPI

N=C(N)NCCC[C@H](NC(=O)[C@H](CCCCN)NC(=O)[C@H](CCC(N)=O)NC(=O)c1ccc(NN)nc1)C(=O)N[C@@H](CCCCN)C(=O)N[C@@H](CCCNC(=N)N)C(=O)N[C@@H](CCCCN)C(=O)N[C@@H](CCCCN)C(=O)N[C@@H](CO)C(=O)N[C@@H](CCCNC(=N)N)C(=O)N[C@@H](CCCCN)C(=O)N[C@@H](CCCCN)C(=O)N[C@@H](Cc1c[nH]cn1)C(=O)O (99mTc complex, metal not drawn) [^99mTc-HYNIC-QKRKRKKSRKKH] ({HYNIC}-QKRKRKKSRKKH-OH) gave a tissue to tissue ratio at 0.5 h [1] of 1.53, a tissue to tissue ratio at 1 h [1] of 3.42 and a tissue to tissue ratio at 2 h [1] of 4.31. It also gave a tissue to tissue ratio at 4 h [1] of 2.62.

Work on CC[C@H](C)[C@H](NC(=O)[C@H](Cc1ccc(O)cc1)NC(=O)[C@H](CCCNC(=N)N)NC(=O)[C@H](CO)NC(=O)[C@H](CCCCN)NC(=O)[C@H](CCCCN)NC(=O)[C@H](CCCNC(=N)N)NC(=O)[C@H](CCCCN)NC(=O)[C@H](CCCNC(=N)N)NC(=O)[C@H](CCCCN)NC(=O)[C@H](CCCNC(=N)N)NC(=O)c1ccc(NN)nc1)C(=O)N[C@H](C(=O)N[C@@H](CC(C)C)C(=O)N[C@@H](CO)C(=O)O)C(C)C (99mTc complex, metal not drawn) [^99mTc-HYNIC-RKRKRKKSRYIVLS] ({HYNIC}-RKRKRKKSRYIVLS-OH) yielded a tissue to tissue ratio at 0.5 h [1] of 4.05, a tissue to tissue ratio at 1 h [1] of 4.02 and a tissue to tissue ratio at 2 h [1] of 3.76. It also gave a tissue to tissue ratio at 4 h [1] of 2.86.

In the case of [Na+].[O]=[188Re](=[O])(=[O])[O-] [Na^188ReO4], the “distribution of radioactivity on SPECT planar imaging” value [2] is reported as “Large amount of radioactivity was observed in thyroids and stomach”, the “A549 tumor volume growth” value ([3]; compared with the saline group, n = 10) is reported as “inhibited the tumor volume growth” and the “apoptosis in non-necrotic tumor areas (TUNEL staining)” value ([3]; end of the therapeutic period) is reported as “no significant difference in necrosis or apoptosis”. The “necrotic regions in tumor tissue (HE staining)” value ([3]; end of the therapeutic period) was “no significant difference in necrosis or apoptosis” and the “survival of A549 tumor-bearing nude mice” value ([3]; n = 10) was “did not improve the survival duration”.

For “GST-QKRKRKKSRKKH [GST-peptide fusion protein from E. coli BL21 (DE3)]”, the “binding to VEGFR-1 by Co-IP and reversed Co-IP” value [4] was “could bind to VEGFR-1”.

For “GST-RKRKRKKSRYIVLS [GST-peptide fusion protein from E. coli BL21 (DE3)]”, the “binding to VEGFR-1 by Co-IP and reversed Co-IP” value [4] was “could combined to VEGFR-1”.

B1: RKRKRKKSRYIVLS (peptide)
peptide: RKRKRKKSRYIVLS
notes: core motif RKRKKSR kept; also called non-labeled peptide; source: synthetic peptide (ChinaPeptides Co., Ltd., SPPS, HPLC purified)
Work on B1 yielded an IC50 [5] of 185 nM.

B2: VEGF_(125-136) (peptide)
peptide: QKRKRKKSRYKS
notes: source: synthetic peptide (ChinaPeptides Co., Ltd., SPPS, HPLC purified)
For B2, the IC50 [5] was 464 nM.

B3: QKRKRKKSRKKH (peptide)
peptide: QKRKRKKSRKKH
notes: as for B1
In the case of B3, the IC50 [5] is reported as 79.8 nM.
